Laboratory results from patent publication US20240034757A1.

molecular target: CXCL10_HUMAN (human) (UniProt P02778); assay: yeast surface display FACS re-test
Sequence (P02778 22-98 limits assumed): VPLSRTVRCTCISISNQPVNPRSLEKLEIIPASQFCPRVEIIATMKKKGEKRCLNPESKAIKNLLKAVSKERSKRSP

Substance	% cells over threshold fluorescence
P1134_IXORI (from UniProt A0A0K8RAI0 32-135)	66%
P1096_IXORI (from UniProt A0A0K8RKE4 24-114)	50%

molecular target: CXCL12_HUMAN (human) (UniProt P48061); assay: yeast surface display FACS re-test
Sequence (P48061 22-89 limits assumed): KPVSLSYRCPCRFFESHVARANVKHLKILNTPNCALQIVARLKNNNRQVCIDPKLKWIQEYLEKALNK

Substance	% cells over threshold fluorescence
P1080_IXORI (from UniProt A0A090XBL6 20-118)	53%
P1095_IXORI (from UniProt A0A0K8RCE3 24-112)	47%

molecular target: CXCL9_HUMAN (human) (UniProt Q07325); assay: yeast surface display FACS re-test
Sequence (Q07325 23-125 limits assumed): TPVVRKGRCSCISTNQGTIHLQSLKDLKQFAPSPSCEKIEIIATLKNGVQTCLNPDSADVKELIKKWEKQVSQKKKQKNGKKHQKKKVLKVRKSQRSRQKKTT

Substance	% cells over threshold fluorescence
P1124_IXORI (from UniProt A0A0K8RG61 29-83)	31%
P458_IXORI (from UniProt A0A0K8R7D4 25-90)	37%
P1086_IXORI (from UniProt A0A0K8RK34 29-94)	54%
P1074_IXORI (from UniProt A0A0K8RDH6 29-96)	35%
P1080_IXORI (from UniProt A0A090XBL6 20-118)	49%
P1100_IXORI (from UniProt A0A0K8R556 29-96)	55%
